Values quoted from earlier work in article PMC3962485.

Molecular target: Hsc70 (UniProt P11142)
Sequence of UniProt P11142 (P11142 2-646): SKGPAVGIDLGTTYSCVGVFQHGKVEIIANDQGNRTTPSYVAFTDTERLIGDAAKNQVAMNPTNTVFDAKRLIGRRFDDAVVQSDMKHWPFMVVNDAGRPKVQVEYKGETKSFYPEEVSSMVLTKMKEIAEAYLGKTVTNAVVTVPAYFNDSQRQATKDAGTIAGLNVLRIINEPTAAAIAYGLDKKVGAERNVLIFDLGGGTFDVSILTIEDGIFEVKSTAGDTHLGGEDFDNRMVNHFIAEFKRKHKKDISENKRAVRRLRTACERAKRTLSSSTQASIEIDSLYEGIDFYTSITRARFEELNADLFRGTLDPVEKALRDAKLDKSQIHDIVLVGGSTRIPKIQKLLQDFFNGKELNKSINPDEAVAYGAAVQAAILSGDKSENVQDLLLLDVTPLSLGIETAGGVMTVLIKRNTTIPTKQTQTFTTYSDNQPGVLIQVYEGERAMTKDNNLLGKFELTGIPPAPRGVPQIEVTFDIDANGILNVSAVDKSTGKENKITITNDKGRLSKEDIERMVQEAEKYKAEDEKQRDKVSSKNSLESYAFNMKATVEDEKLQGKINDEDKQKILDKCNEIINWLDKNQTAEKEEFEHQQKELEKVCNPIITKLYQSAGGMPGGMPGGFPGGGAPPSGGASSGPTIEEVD

Kd: 5 µM
Substance: Snl1-M (from UniProt P40548)
